# Assay results: paper PMC2570560, “Subunit Mobility and the Chaperone Activity of Recombinant αB-Crystallin” (The Open Biochemistry Journal, 2008)
# Molecular target: the molecule itself
# Assay: cross-linking; 0.05 mM αB-crystallin with 0.3 mM glutaraldehyde in PBS (20 mM phosphate buffer, 150 mM NaCl, pH 7.2), 20 °C, 30 h; dialysed against PBS; examined by SDS-PAGE
protein,measurement,value
"recombinant human αB-crystallin (natural protein, UniProt P02511 1-175, looked up, also called native αB-crystallin; source: E. coli BL21(DE3), purified (ammonium sulfate fractionation, Q-Sepharose anion exchange)) MDIAIHHPWIRRPFFPFHSPSRLFDQFFGEHLLESDLFPTSTSLSPFYLRPPSFLRAPSWFDTGLSEMRLEKDRFSVNLDVKHFSPEELKVKVLGDVIEVHGKHEERQDEHGFISREFHRKYRIPADVDPLTITSSLSSDGVLTVNGPRKQVSGPERTIPITREEKPAVTAAPKK",binding result,binds
